Measured values reported in patent publication US20140308287A1 (SEA LANE BIOTECHNOLOGIES, published 2014).
One block for each binder: values may come before it.

Key:
[1] = biological target: T1, human ErbB3-Fc (R&D Systems) (human, UniProt P21860 20-643); assay: ELISA on ErbB3-Fc (Example 42); format of the parent not stated, the variants were soluble monovalent Sabs
T1 construct: Bought protein; also called wild-type ErbB3-Fc fusion; immobilized ErbB3; not shown: Fc part of the bought fusion protein; not described

[2] = biological target: T1, human ErbB3-Fc (R&D Systems); assay: ELISA, SgG on plate-coated human ErbB3-Fc, anti-VpreB detection
Description: (§1) Binding was detected using a biotinylated antibody that specifically recognizes VpreB, followed by streptavidin HRP. Detection used a colorimetric HRP substrate. Data was analyzed via using GraphPad Prism.

[3] = biological target: T1, human ErbB3-Fc (R&D Systems); assay: ELISA, inhibition of binding of NRG1-beta 1 ECD (0.26 ug/ml) to plate-coated human ErbB3-Fc
Description: ELISA plates were coated with human ErbB3-Fc. Various concentrations of the indicated anti-ErbB3 SBPs were then allowed to bind to the coated wells. […] Detection used a colorimetric HRP substrate.
Data was analyzed using GraphPad Prism.

[4] = biological target: T1, human ErbB3-Fc (R&D Systems); assay: ELISA, SgG on plate-coated human ErbB3-Fc
Description: as §1

[5] = biological target: T2, human ErbB3 expressed on the surface of cells (BxPC-3 and other human tumor cell lines) (human, UniProt P21860 20-1342); assay: flow cytometry on BxPC-3 cells
T2 construct: SKBR3, PathHunter reporter cells in functional assays; The leader 1-19 is not part of the mature protein; also called cell surface ErbB3; cell surface receptor
Description: (§2) Briefly, BxPC-3 cells were first dissociated using 0.25% trypsin, 0.2% EDTA, washed in cold PBS, 1% BSA, and then resuspended at 3×10⁶ cells/ml. SgGs (described above) were added at the indicated concentrations in Staining Buffer (Becton Dickinson) and incubated at 4 degrees C. for 1 hour. Next the cells were washed in stain buffer and resuspended with 1:133 diluted biotinylated goat anti-human IgG (Southern Biotech #2040-08) and incubated at 4 degrees C. for 1 hour. Cells were then washed in stain buffer and resuspended with Alexa488 conjugated streptavidin (Invitrogen #S11223) and incubated at 4 degrees C. for 1 hour. One microliter of the vital stain 7AAD (Invitrogen #A1310) was added during the last 15 minutes of incubation. Cells were washed with stain buffer and analyzed on a flow cytometer.
(§3) Thereafter only signals arising from this gated population were analyzed. Geometric mean fluorescence intensity for cells stained using the indicated concentrations of SBPs were determined using FLOWJO analysis software and EC50s were calculated using Graphpad Prism.

[6] = biological target: T1, human ErbB3-Fc (R&D Systems); assay: ELISA on plate-coated human ErbB3-Fc without NRG, detection biotinylated anti-VpreB and streptavidin HRP (Example 43); axis labelled log [Sab] nM, text speaks of SgGs
Source text: (§4) The resulting bound SgGs were detected using a biotinylated anti-VpreB, followed by streptavidin HRP colorimetric detection.

[7] = biological target: T3, murine ErbB3-Fc (R&D Systems) (mouse, UniProt Q61526 20-641); assay: ELISA, SgG on plate-coated murine ErbB3-Fc, anti-VpreB detection
T3 construct: Bought protein; also called mouse ErbB3; not shown: Fc part of the bought fusion protein; not described
T3 sequence (Q61526 20-641 limits assumed): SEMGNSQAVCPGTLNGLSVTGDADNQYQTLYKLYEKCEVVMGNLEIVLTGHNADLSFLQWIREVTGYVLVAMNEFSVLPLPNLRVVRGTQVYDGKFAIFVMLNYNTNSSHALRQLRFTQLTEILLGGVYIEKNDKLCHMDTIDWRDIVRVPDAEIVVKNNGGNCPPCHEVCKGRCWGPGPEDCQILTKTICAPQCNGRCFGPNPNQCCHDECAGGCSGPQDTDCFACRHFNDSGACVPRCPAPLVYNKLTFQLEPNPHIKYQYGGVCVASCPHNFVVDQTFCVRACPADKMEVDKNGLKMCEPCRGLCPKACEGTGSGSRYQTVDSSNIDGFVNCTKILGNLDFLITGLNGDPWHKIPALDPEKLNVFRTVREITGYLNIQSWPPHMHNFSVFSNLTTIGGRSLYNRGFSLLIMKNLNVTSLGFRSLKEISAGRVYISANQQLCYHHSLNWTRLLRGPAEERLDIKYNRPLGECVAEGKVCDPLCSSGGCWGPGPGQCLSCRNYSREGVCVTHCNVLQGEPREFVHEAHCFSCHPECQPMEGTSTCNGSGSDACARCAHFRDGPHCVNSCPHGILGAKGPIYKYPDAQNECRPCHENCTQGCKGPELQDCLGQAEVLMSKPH
Description: (§5) Binding was detected using a biotinylated antibody that recognizes VpreB, followed by strepatvidin HRP. Detection used a colorimetric HRP substrate. Data was analyzed via using GraphPad Prism.

[8] = biological target: T1, human ErbB3-Fc (R&D Systems); assay: ELISA on plate-coated human ErbB3-Fc with 1.85 nM NRG1-beta 1 extracellular domain added before the SBP (+ NRG), detection biotinylated anti-VpreB (Example 43); axis labelled log [Sab] nM
Source text: as §4

ErbB2-Fc = biological target: T4, ErbB2-Fc (human, UniProt P04626 23-652); assay: ELISA on plate-coated ErbB2-Fc, detection biotinylated anti-VpreB (Example 52)
T4 construct: The sentence reads 'human ErbB3-Fc, EGFR-Fc (ErbB1) or ErbB2-Fc'; 'human' is read as applying to all three; not shown: Fc part; not described
Source text: (§6) ELISA plates were coated with human ErbB3-Fc, EGFR-Fc (ErbB1) or ErbB2-Fc. Various concentrations of the indicated anti-ErbB3 SBPs were then allowed to bind to the coated wells. Binding was detected using a biotinylated antibody that specifically recognizes VpreB, followed by streptavidin HRP. Detection used a colorimetric HRP substrate.

[9] = biological target: T2, human ErbB3 expressed on the surface of …; assay: flow cytometry on BxPC-3 cells, geometric mean fluorescence intensity
Description: as §2, §3

[10] = biological target: T1, human ErbB3-Fc (R&D Systems); assay: ELISA on plate-coated human ErbB3-Fc, detection biotinylated anti-VpreB and streptavidin HRP (Example 52)
Source text: as §6

EGFR-Fc (ErbB1) = biological target: T5, EGFR-Fc (ErbB1) (human, UniProt P00533 25-645); assay: ELISA on plate-coated EGFR-Fc (ErbB1), detection biotinylated anti-VpreB (Example 52)
T5 construct: The sentence reads 'human ErbB3-Fc, EGFR-Fc (ErbB1) or ErbB2-Fc'; 'human' is read as applying to all three; not shown: Fc part; not described
Source text: as §6

[11] = biological target: T3, murine ErbB3-Fc (R&D Systems); assay: ELISA, SgG on plate-coated murine ErbB3-Fc
Description: as §5

[12] = biological target: T1, human ErbB3-Fc (R&D Systems); assay: ELISA on ErbB3-Fc (Example 42); format of the parent not stated, the variants were soluble monovalent Sabs; remark: listed apart in the source

EC50 [1]: 0.055 nM
B1: 2817-C01 (Parent) (other)
VH: EVQLLESGGGLVQPGGSLRLSCAASGFTFSTYAMNWVRQAPGKGLEWVALISSGGSYKYYADSVKGRFTISRDNSKNTLYLQMNSLRAEDTAVYYCAKDNFILLNSWFDYWGQGTLVTVSS
surrogate light: QPVLHQPPAMSSALGTTIRLTCTLRNDHDIGVYSVYWYQQRPGHPPRFLLRYFSQSDKSQGPQVPPRFSGSKDVARNRGYLSISELQPEDEAMYYCAMGARSSVTHVFGSGTQLTVLSQPKATPSVTLFPPSSEELQANKATLVCLMNDFYPGILTVTWKADGTPITQGVEMTTPSKQSNNKYAASSYLSLTPEQWRSRRSYSCQVMHEGSTVEKTVAPAECS

EC50 [2]: 0.05 nM | IC50 [3]: 0.52 nM | EC50 [4]: 0.049 nM | EC50 [5]: 0.04 nM | EC50 (read off the curve) [6]: ~0.5 nM | EC50 [7]: 0.06 nM | EC50 (read off the curve) [8]: ~0.7 nM | binding result (ErbB2-Fc): no binding (tested: 1000 nM) | EC50 [9]: 0.04 nM | EC50 (read off the curve) [10]: ~0.08 nM | binding result (EGFR-Fc (ErbB1)): no binding (tested: 1000 nM) | EC50 [11]: 0.095 nM
B2: 2716-F05 surroglobulin (SgG) (other)
VH: EVQLLESGGGLVQPGGSLRLSCAASGFTFSNYWMHWVRQAPGKGLEWVALISGGGGNTYYADSVKGRFTISRDNSKNTLYLQMNSLRAEDTAVYYCAKDNEKNLYTWLDYWGQGTLVTVSS
light: B1 surrogate light
notes: also called anti-ErbB3 SgG

EC50 [12]: 0.22 nM
B3: 2716-F05 (Parent) (other)
VH: B2 VH
light: B1 surrogate light

EC50 [2]: 0.04 nM | IC50 [3]: 0.99 nM | EC50 [4]: 0.041 nM | EC50 [5]: 0.138 nM | EC50 (read off the curve) [6]: ~0.2 nM | EC50 (read off the curve) [8]: ~0.3 nM | binding result (ErbB2-Fc): no binding (tested: 1000 nM) | EC50 [9]: 0.12 nM | EC50 (read off the curve) [10]: ~0.05 nM | binding result (EGFR-Fc (ErbB1)): no binding (tested: 1000 nM)
B4: 2817-C01 surroglobulin (SgG) (other)
VH: B1 VH
light: B1 surrogate light
notes: also called anti-ErbB3 SgG
